Where two headings read alike, the source gives them in different places.
Assays:
[1] = biological target: T1, human NKG2A/CD94 on cells (CHOK1-hNKG2A/CD94) (human, UniProt P26715 1-233; Q13241 1-179); test: cell-based or functional assay
[2] = biological target: T2, human NKG2C/CD94 on cells (CHOK1-hNKG2C/CD94) (human, UniProt P26717 1-231; Q13241 1-179); test: FACS on CHOK1-hNKG2C/CD94 cells
T2 construct: whole, on cells; also called human NKG2C overexpressing cells; human NKG2C overexpressing cell line
Method: (§1) Human NKG2A overexpressing cells (CHOK1-hNKG2A/CD94), cyno NKG2A overexpressing cells (CHOK1-cynoNKG2A/CD94), and human NKG2C overexpressing cells (CHOK1-hNKG2C/CD94) were digested with TrypLE (purchased from Gibco). Cells were collected by centrifugation, then resuspended to 2E6/mL with FACS buffer (PBS+2% FBS). The cells were added to a 96-well cell plate at 100 μL per well, and the supernatant was discarded after centrifugation. The antibody was gradiently diluted with FACS buffer (initial concentration of 200 nM, 5-fold dilution, including point 0, a total of 10 concentration points), added to the cells at 100 μL/well, mixed, and incubated at 4° C. for 1 hour. The incubated cells were centrifuged at 300 g for 5 min and washed twice with FACS buffer. Secondary antibody, anti-human IgG fluorescent secondary antibody 488 (purchased from Thermofisher A-11013), was added, incubated at 4° C. for one hour, then the cells were washed twice with FACS buffer, resuspended in PBS and analyzed by FACS instrument.

[3] = biological target: T1, human NKG2A/CD94 on cells …; test: FACS on CHOK1-hNKG2A/CD94 cells
Method: as §1

[4] = biological target: T1, human NKG2A/CD94 on cells …; test: FACS on human NKG2A overexpressing cell line
Method: as §1
The binding activity of humanized antibodies to human NKG2A overexpressing cell line was detected by FACS (refer to Example 4 for FACS). The maximum MFIs of cAb-43 and its humanized mutant antibodies to human NKG2A overexpressing cell line were greater than that of the Z270 control antibody.

[5] = biological target: T1, human NKG2A/CD94 on cells …; test: cell-based or functional assay; remark: listed apart in the source

T1 sequence (P26715 whole entry, chain 1 of 2): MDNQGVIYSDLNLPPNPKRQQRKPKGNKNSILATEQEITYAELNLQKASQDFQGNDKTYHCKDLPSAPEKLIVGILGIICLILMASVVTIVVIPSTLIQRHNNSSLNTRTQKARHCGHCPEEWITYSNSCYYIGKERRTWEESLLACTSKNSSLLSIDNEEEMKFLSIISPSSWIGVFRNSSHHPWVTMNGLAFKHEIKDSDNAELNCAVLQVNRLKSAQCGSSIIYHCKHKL
T1 sequence (Q13241 whole entry, chain 2 of 2): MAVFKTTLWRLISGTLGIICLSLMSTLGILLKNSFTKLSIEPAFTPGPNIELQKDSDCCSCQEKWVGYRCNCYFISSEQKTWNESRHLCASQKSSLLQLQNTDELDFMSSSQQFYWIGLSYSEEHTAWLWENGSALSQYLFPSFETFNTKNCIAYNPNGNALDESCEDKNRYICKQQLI
T2 sequence (P26717 whole entry, chain 1 of 2): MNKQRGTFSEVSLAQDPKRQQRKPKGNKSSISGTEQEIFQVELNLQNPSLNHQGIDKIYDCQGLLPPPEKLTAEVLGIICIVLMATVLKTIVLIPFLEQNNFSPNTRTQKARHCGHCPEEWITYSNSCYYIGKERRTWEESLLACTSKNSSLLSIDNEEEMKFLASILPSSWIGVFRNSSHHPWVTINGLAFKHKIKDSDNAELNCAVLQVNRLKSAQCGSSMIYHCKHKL
T2 sequence (Q13241 whole entry, chain 2 of 2): as the sequence (Q13241 whole entry, chain 2 of 2) above

| Binder | binding result [3] | Maximum MFI [4] [MFI] | IC50 (nM), killing of LCL721.221 target cells by NK92 cells [1] [nM] | binding result [2] | IC50 (nM), killing of LCL721.221 target cells by NK92 cells [5] [nM] |
| --- | --- | --- | --- | --- | --- |
| hu-43VH-13/VL-11 (antibody, human IgG4 S228P, kappa, V domains shown) VH: QVQLVQSGAEVKKPGASVKVSCKASGFNIQNTYIHWVRQAPGQGLEWIGRIDPASGSTEYAPKFQGRATITADTSTNTGYMELSSLRSEDTAVYYCARYGNFLYYYSMDYWGQGTLVTVSS VL: DIVMTQSPLSLPVTPGEPASISCRSNKSLLHSNGNTYLYWFLQKPGQSPQLLIYRMSNLASGVPDRFSGSGSGTDFTLKISRVEAEDVGVYYCMQHLENPYTFGQGTKLEIKR |  |  | 0.37 |  |  |
| cAb-17 (antibody, human IgG4 S228P, kappa, V domains shown, human-mouse chimeric antibody, human IgG4 constant region; also called antibody number 17; NKG2A chimeric antibody) VH: EVQLQQSVAELVRPGASVKLSCTASGFNIKNTYIDWVKQRPEQGLEWIGNIDPANGNTKYAPKFQGKATITADTSSNTAYVQLSSLTSEDTAIYYCARWGGWDVRFAYWGQGTLVTVSA VL: DIKMTQSPSSMYASLGERVTITCKASQDINTYLSWFQQKPGKSPKTLIYRANRLVDGVPSRFSGSGSGQNYSLTISSLEYEDMGIYYCLQYDEFPLTFGAGTKLELKR | binds |  |  | no binding (tested: initial concentration of 200 nM) |  |
| hu-52VH-13/VL-11 (antibody, human IgG4 S228P, kappa, V domains shown, full-length humanized antibody; also called hu-52 humanized antibody) VH: QVQLVQSGAEVKKPGASVKVSCKASGFNIQNTYLHWVRQAPGQGLEWMGRIDPANDNIKYVPKFQGRVTMTADTSTNTAYMELSSLRSEDTAVYYCTRHGLFYEGWFAYWGQGTLVTVSS VL: DIQLTQSPSSLSASVGDRVTITCSVSSSISSSNLHWYQQKPGKAPKPLIYGTSNLASGVPSRFSGSGSGTDYTLTISSLQPEDAATYYCQQWSSYPYTFGQGTKLEIKR |  | 18800 |  |  | 0.19 |
| hu-52VH-13/VL-31 (antibody, human IgG4 S228P, kappa, V domains shown, full-length humanized antibody; also called hu-52 humanized antibody) VH: QVQLVQSGAEVKKPGASVKVSCKASGFNIQNTYLHWVRQAPGQGLEWMGRIDPANDNIKYVPKFQGRVTMTADTSTNTAYMELSSLRSEDTAVYYCTRHGLFYEGWFAYWGQGTLVTVSS VL: EIVLTQSPATLSLSPGERATLSCSVSSSISSSNLHWYQQKPGQAPRPLIYGTSNLASGIPARFSGSGSGTDYTLTISSLEPEDAAVYYCQQWSSYPYTFGQGTKLEIKR |  | 18800 |  |  | 0.16 |
| hu-52VH-23/VL-21 (antibody, human IgG4 S228P, kappa, V domains shown, full-length humanized antibody; also called hu-52 humanized antibody) VH: QVQLVQSGAEVKKPGASVKVSCKASGFNIQNTYLHWVRQAPGQGLEWMGRIDPANDNIKYVPKFQGRVTMTADTSINTAYMELSRLRSDDTAVYYCTRHGLFYEGWFAYWGQGTLVTVSS VL: DIQLTQSPSTLSASVGDRVTITCSVSSSISSSNLHWYQQKPGKAPKPLIYGTSNLASGVPSRFSGSGSGTEYTLTISSLQPDDAATYYCQQWSSYPYTFGQGTKLEIKR |  | 18000 |  |  | 0.12 |
| hu-52VH-13/VL-21 (antibody, human IgG4 S228P, kappa, V domains shown, full-length humanized antibody; also called hu-52 humanized antibody) VH: QVQLVQSGAEVKKPGASVKVSCKASGFNIQNTYLHWVRQAPGQGLEWMGRIDPANDNIKYVPKFQGRVTMTADTSTNTAYMELSSLRSEDTAVYYCTRHGLFYEGWFAYWGQGTLVTVSS VL: DIQLTQSPSTLSASVGDRVTITCSVSSSISSSNLHWYQQKPGKAPKPLIYGTSNLASGVPSRFSGSGSGTEYTLTISSLQPDDAATYYCQQWSSYPYTFGQGTKLEIKR |  | 18900 |  |  | 0.14 |
| hu-52VH-23/VL-11 (antibody, human IgG4 S228P, kappa, V domains shown, full-length humanized antibody; also called hu-52 humanized antibody) VH: QVQLVQSGAEVKKPGASVKVSCKASGFNIQNTYLHWVRQAPGQGLEWMGRIDPANDNIKYVPKFQGRVTMTADTSINTAYMELSRLRSDDTAVYYCTRHGLFYEGWFAYWGQGTLVTVSS VL: DIQLTQSPSSLSASVGDRVTITCSVSSSISSSNLHWYQQKPGKAPKPLIYGTSNLASGVPSRFSGSGSGTDYTLTISSLQPEDAATYYCQQWSSYPYTFGQGTKLEIKR |  | 18700 |  |  | 0.13 |

The next lines start with results.

| binding result [3] | Maximum MFI [4] [MFI] | Binder | IC50 (nM), killing of LCL721.221 target cells by NK92 cells [1] [nM] | binding result [2] | IC50 (nM), killing of LCL721.221 target cells by NK92 cells [5] [nM] |
| --- | --- | --- | --- | --- | --- |
| binds |  | cAb-24 (antibody, human IgG4 S228P, kappa, V domains shown, human-mouse chimeric antibody, human IgG4 constant region; also called antibody number 24; NKG2A chimeric antibody) VH: EVQLQQSVAELVRPGASVKLSCTASGFNIQNTYMHWVKQRPEQGLEWIGRIDPANGNTKYAPKFQGKATITADTSSNTAYLQLSSLTSEDTAIYYCARYYDSRYGYWGQGTTLTVSS VL: DIKMTQSPSSMYASLGERVTITCKASQDINSYLSWFQQKPGKSPTTLIYRANRLVDGVPSRFSGSGSGQDYSLTISSLEYEDLGIYFCLQYDEFPWTFGGGTKLEIKR |  | no binding (tested: initial concentration of 200 nM) |  |
| binds |  | cAb-33 (antibody, human IgG4 S228P, kappa, V domains shown, human-mouse chimeric antibody, human IgG4 constant region; also called antibody number 33; NKG2A chimeric antibody) VH: EVQLQQSVAELVRPGASVKLSCTASGFNIKNTYMDWVKQRPEQGLEWIGRIDPANGNTKYAPKFQGKATITADTSSNTAYLQLSSLTSEDTAIYYCAREGNWDDWFVYWGQGTLVTVSA VL: DVLMTQTPLSLPVSLGDQASISCRSSQSIVHSNGNTYLEWFLQKPGQSPKLLIYKVSNRFSGVPDRFSGSGSGTDFTLKISRVEAEDLGVYYCFQGSHVPPTFGGGTKLEIKR |  | no binding (tested: initial concentration of 200 nM) |  |
| binds |  | cAb-35 (antibody, human IgG4 S228P, kappa, V domains shown, human-mouse chimeric antibody, human IgG4 constant region; also called antibody number 35; NKG2A chimeric antibody) VH: EVQLQQSVAELVRPGASVKLSCTASGFNIKNTYMDWVKQRPEQGLEWIGRIDPANGNTKHAPKFQGKATITTDTSSNTAYLQLSSLTSEDTAIYYCARWGGWDVRFAYWGQGTLVTVSA VL: DIKMTQSPSSMYASLGERVTINCQASQDINSYLSWFQQKPGKSPKTLIHRANRLVDGVPSRFSGSGSGQDYSLTISSLEYEDMGIYYCLQFDEFPLTFGAGTKLELKR |  | no binding (tested: initial concentration of 200 nM) |  |
| binds |  | cAb-9 (antibody, human IgG4 S228P, kappa, V domains shown, human-mouse chimeric antibody, human IgG4 constant region; also called antibody number 9; NKG2A chimeric antibody) VH: EVQLQQSVAELVRPGASVKLSCTASGFNIQNTYMHWVKERPEQGLEWIGRIDPANGDTEFAPKFQGKATLTTDTSSNTAYLQLSSLTSEDTAIYYCGRERYFYGSRGFAYWGQGTLVTVSA VL: DILMTQSPPSMSVSLGDTVSITCHASQGISSNIGWLQQKPGKSFKGLIYHGTNLEDGVPSRFSGSGSGADYSLTISSLESEDFADYYCVQYAQFPWTFGGGTKLEIKR |  | no binding (tested: initial concentration of 200 nM) |  |
|  | 18100 | hu-52VH-23/VL-31 (antibody, human IgG4 S228P, kappa, V domains shown, full-length humanized antibody; also called hu-52 humanized antibody) VH: QVQLVQSGAEVKKPGASVKVSCKASGFNIQNTYLHWVRQAPGQGLEWMGRIDPANDNIKYVPKFQGRVTMTADTSINTAYMELSRLRSDDTAVYYCTRHGLFYEGWFAYWGQGTLVTVSS VL: EIVLTQSPATLSLSPGERATLSCSVSSSISSSNLHWYQQKPGQAPRPLIYGTSNLASGIPARFSGSGSGTDYTLTISSLEPEDAAVYYCQQWSSYPYTFGQGTKLEIKR |  |  |  |
|  | 18000 | hu-52VH-33/VL-21 (antibody, human IgG4 S228P, kappa, V domains shown, full-length humanized antibody; also called hu-52 humanized antibody) VH: QVQLVQSGAEVKKPGSSVKVSCKASGFNIQNTYLHWVRQAPGQGLEWMGRIDPANDNIKYVPKFQGRVTITADTSTNTAYMELSSLRSEDTAVYYCTRHGLFYEGWFAYWGQGTLVTVSS VL: DIQLTQSPSTLSASVGDRVTITCSVSSSISSSNLHWYQQKPGKAPKPLIYGTSNLASGVPSRFSGSGSGTEYTLTISSLQPDDAATYYCQQWSSYPYTFGQGTKLEIKR |  |  |  |
|  | 18800 | hu-52VH-33/VL-11 (antibody, human IgG4 S228P, kappa, V domains shown, full-length humanized IgG4 antibody (not the L235E/D265A/R409K IgG4 mutant); also called hu-52 humanized antibody) VH: QVQLVQSGAEVKKPGSSVKVSCKASGFNIQNTYLHWVRQAPGQGLEWMGRIDPANDNIKYVPKFQGRVTITADTSTNTAYMELSSLRSEDTAVYYCTRHGLFYEGWFAYWGQGTLVTVSS VL: DIQLTQSPSSLSASVGDRVTITCSVSSSISSSNLHWYQQKPGKAPKPLIYGTSNLASGVPSRFSGSGSGTDYTLTISSLQPEDAATYYCQQWSSYPYTFGQGTKLEIKR |  |  | 0.09 |
| binds |  | cAb-14 (antibody, human IgG4 S228P, kappa, V domains shown, human-mouse chimeric antibody, human IgG4 constant region; also called antibody number 14; NKG2A chimeric antibody) VH: EVQLQQSVAELVRPGASVKLSCTASGFNIKNTYIHWVKQRPEQGLEWIGRIDPANGNTKYAPKFQGKASIIVDTSSNTAYLQLSSLTSEDTAIYYCARYYASSPYYYNMDYWGQGTSVTVSS VL: DIQMTQSPASLSVSVGETVTITCRASENIYSNLAWYQQKQGKSPQLLVYAATNLADGVPSRFSGSGSGTQYSLKINSLQSEDFGSYYCQHFWGTFTFGSGTKLEIKR |  | no binding (tested: initial concentration of 200 nM) |  |
|  | 18800 | cAb-52 (antibody, human IgG4 S228P, kappa, V domains shown, human-mouse chimeric antibody, human IgG4 constant region; also called antibody number 52; NKG2A chimeric antibody) VH: EVQLQQSVAELVRPGASVKLSCTASGFNIQNTYLHWVKQRPEQGLEWIGRIDPANDNIKYVPKFQGKATITADTSSNTAYLQLSSLTSEDTAIYYCTRHGLFYEGWFAYWGQGTLVTVST VL: EIVLTQSPALMAASPGEKVTITCSVSSSISSSNLHWYQQKSGTSPKPWIYGTSNLASGVPVRFSGSGSGTSYSLTISSMEAEDAATYYCQQWSSYPYTFGSGTKLEIKR |  | no binding (tested: initial concentration of 200 nM) | 0.28 |
